We go through one molecule from PMC5134462, “Electrochemical Aptasensor for Myoglobin-Specific Recognition Based on Porphyrin Functionalized Graphene-Conjugated Gold Nanocomposites”.

The target of the data set is T1, myoglobin (human, UniProt P02144 2-154).
T1 sequence: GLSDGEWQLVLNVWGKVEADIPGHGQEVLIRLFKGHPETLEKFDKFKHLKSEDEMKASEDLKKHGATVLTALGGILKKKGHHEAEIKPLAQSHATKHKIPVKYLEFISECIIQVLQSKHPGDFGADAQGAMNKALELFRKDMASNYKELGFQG
In words: electrochemical aptasensor (DPV); aptamer immobilized on TCPP-Gr/AuNPs/GCE; 45 min incubation; 1.47e-10 M myoglobin; LOD 6.7e-12 M, linear 2.0e-11 to 7.7e-7 M (not Kd); Aptamer dissolved in T-buffer: 20 mM Tris-HCl, 0.10 M NaCl, 5.0 mM MgCl2, 10 mM TCEP, pH 7.4; binding buffer and temperature not given in the material. Particulars: protein: native; label: ferrocene (3').

B1: MbBA (myoglobin-binding aptamer) (ssDNA)
DNA: CCCTCCTTTCCTTCGACGTAGATCTGCTGCGTTGTTCCGA
modifications: 5' SH-(CH2)6; 3' ferrocene (Fc)
For B1, the binding result is recorded as “binds”.
